Reference: the supplement of paper PMC12783771
Changes are numbered by the printed parent chain. ± gives the standard deviation of the averaged measurements.

B1: library; numbered along this chain (parent)
chain: MNIQIGELAKRTACPVVTIRFYEQEGLLPPPGRSRGNFRLYGEEHVERLQFIRHCRSLDMPLSDVRTLLSYRKRPDQDCGEVNMLLDEHIRQVESRIGALLELKHHLVELREACSGARPAQSCGILQGLSDCVCDTRGTTAHPSD
B2: library; a variant is named by its letters at X, in order (parent)
chain: B1 chain with D64X, N83X, K104X, L107X, G128X, D131X, D135X, P143X
B3: library; a variant is named by its letters at X, in order (parent)
chain: B1 chain with D64X, N83X, I90X, K104X, H106X, P143X

Variants of: B1
Test: sfGFP reporter fluorescence (15 h) (µM FITC); higher = higher leak
Conditions: library round: Round 0; ligand: none
How it was run: (§1)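 PCR-made linear PbrR templates (Echo-normalized to 5 nM) were expressed in BL21 Star (DE3) extract (PANOx-SP) with pPbrR-sfGFP reporter plasmid and 30 μg/mL GamS. Reactions were 1 μL, Echo-assembled, with 1 µM lead chloride, 30 µM zinc acetate or no metal, incubated 15 hr at 30 °C. Endpoint sfGFP fluorescence (485/528 nm, Synergy Neo2) was converted to µM FITC via standard curves in 50 mM sodium borate pH 8.5. Up to three biological replicates.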

| Variant | sfGFP reporter fluorescence |
| --- | --- |
| S144A | 0.0586 ± 0.0036 |
| D145A | 0.0599 ± 0.0013 |
| P143Y | 0.05846 ± 0.00026 |

Variants of: B1
Test: sfGFP reporter fluorescence (15 h) (µM FITC); higher = stronger transcriptional activation
Conditions: library round: Round 0; ligand: 1 µM Pb
How it was run: as §1

| Variant | sfGFP reporter fluorescence |
| --- | --- |
| S144A | 0.0588 ± 0.0023 |
| D145A | 0.0702 ± 0.0039 |
| P143Y | 0.0834 ± 0.0039 |

Same assay, conditions: library round: Round 0; ligand: 30 µM Zn

| Variant | sfGFP reporter fluorescence |
| --- | --- |
| S144A | 0.493 ± 0.16 |
| D145A | 0.56 ± 0.036 |
| P143Y | 0.73 ± 0.013 |

Variants of: B2
Test: sfGFP reporter fluorescence (15 h) (µM FITC); higher = higher leak
Conditions: library round: Round 3; ligand: none
Procedure: (§2)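 Cell-free biosensing: 1 µL Echo-assembled CFE reactions with linear PbrR variant templates (5 nM) and pPbrR-sfGFP reporter, with 1 µM Pb, 30 µM Zn or no ligand; endpoint sfGFP fluorescence after 15 h at 30 °C calibrated as µM FITC. Round 3 ML-predicted PbrR mutants; up to 3 biological replicates.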

| Variant | sfGFP reporter fluorescence |
| --- | --- |
| LCKCGAAP V16C H54C C55P H106L | 0.0465 ± 0.0012 |
| LCKCGAAP H54C C55P H106L | 0.0458 ± 0.0017 |
| DCKLGADY V16C H106A | 0.0446 ± 0.0041 |
| DCKVGDDP V82I L85M | 0.0458 ± 0.0022 |

Variants of: B2
Test: sfGFP reporter fluorescence (15 h) (µM FITC); higher = stronger transcriptional activation
Conditions: library round: Round 3; ligand: 1 µM Pb
Procedure: as §2

| Variant | sfGFP reporter fluorescence |
| --- | --- |
| LCKCGAAP V16C H54C C55P H106L | 0.04402 ± 0.00034 |
| LCKCGAAP H54C C55P H106L | 0.0424 ± 0.0028 |
| DCKLGADY V16C H106A | 0.232 ± 0.014 |
| DCKVGDDP V82I L85M | 0.329 ± 0.034 |

Same assay, conditions: library round: Round 3; ligand: 30 µM Zn

| Variant | sfGFP reporter fluorescence |
| --- | --- |
| LCKCGAAP V16C H54C C55P H106L | 0.0492 ± 0.00085 |
| LCKCGAAP H54C C55P H106L | 0.0474 ± 0.0026 |
| DCKLGADY V16C H106A | 0.0501 ± 0.00089 |
| DCKVGDDP V82I L85M | 0.128 ± 0.0044 |

Variants of: B3
Test: sfGFP reporter fluorescence (15 h) (µM FITC); higher = higher leak
Conditions: library round: Round 3b; ligand: none
Procedure: as §2, with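 “3b rational combinatorial” for “3 ML-predicted”, “mutants;” for “mutants; up to”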

| Variant | sfGFP reporter fluorescence |
| --- | --- |
| DIAKET | 0.0419 ± 0.00078 |
| DIAKER | 0.0433 ± 0.0047 |
| DIIVER | 0.0467 ± 0.0027 |
| DIIVET | 0.0433 ± 0.0015 |
| KIITER | 0.0454 ± 0.0026 |
| KIITEP | 0.0456 ± 0.0027 |
| KIITET | 0.0468 ± 0.0019 |
| KIIKER | 0.0441 ± 0.0037 |
| KIIKET | 0.0423 ± 0.0019 |
| KFITHR | 0.0496 ± 0.0019 |
| KFITHT | 0.0512 ± 0.0076 |
| KFAKAT | 0.0569 ± 0.0013 |
| KFAKAP | 0.0577 ± 0.0042 |
| KFAKAR | 0.0579 ± 0.0044 |
| KNIVET | 0.112 ± 0.0075 |
| KNIVER | 0.115 ± 0.006 |
| KFITEP | 0.0482 ± 0.0055 |
| KFITET | 0.0451 ± 0.0028 |
| KFITER | 0.0486 ± 0.00051 |

| Variant | sfGFP reporter fluorescence |
| --- | --- |
| DIAVAT | 0.0441 ± 0.0047 |
| DIAVAP | 0.0451 ± 0.0067 |
| DIAVAR | 0.0429 ± 0.0036 |
| KFAVER | 0.0512 ± 0.0022 |
| KFAVET | 0.0489 ± 0.0017 |
| KFAVEP | 0.0452 ± 0.0037 |
| DIIVAT | 0.0468 ± 0.0037 |
| DIATHT | 0.0414 ± 0.0019 |
| DIATHR | 0.0464 ± 0.003 |
| KFIKER | 0.0412 ± 0.0027 |
| KFIKET | 0.0439 ± 0.002 |
| DFITAR | 0.0422 ± 0.0057 |
| DFITAT | 0.0436 ± 0.0017 |
| DFATHR | 0.0436 ± 0.0022 |
| DFATHT | 0.0408 ± 0.0051 |
| DFATEP | 0.041 ± 0.0024 |
| DFATER | 0.044 ± 0.0013 |
| DFATET | 0.0435 ± 0.0019 |

Variants of: B3
Test: sfGFP reporter fluorescence (15 h) (µM FITC); higher = stronger transcriptional activation
Conditions: library round: Round 3b; ligand: 1 µM Pb
Procedure: as §2, with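 “3b rational combinatorial” for “3 ML-predicted”, “mutants;” for “mutants; up to”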

| Variant | sfGFP reporter fluorescence |
| --- | --- |
| DIAKET | 0.0472 ± 0.0015 |
| DIAKER | 0.0512 ± 0.0021 |
| DIIVER | 0.0917 ± 0.0042 |
| DIIVET | 0.0933 ± 0.0025 |
| KIITER | 0.266 ± 0.0032 |
| KIITEP | 0.301 ± 0.011 |
| KIITET | 0.265 ± 0.01 |
| KIIKER | 0.149 ± 0.017 |
| KIIKET | 0.128 ± 0.0066 |
| KFITHR | 0.554 ± 0.021 |
| KFITHT | 0.492 ± 0.046 |
| KFAKAT | 0.564 ± 0.039 |
| KFAKAP | 0.495 ± 0.031 |
| KFAKAR | 0.663 ± 0.0095 |
| KNIVET | 0.514 ± 0.055 |
| KNIVER | 0.585 ± 0.046 |
| KFITEP | 0.36 ± 0.014 |
| KFITET | 0.3727 ± 0.0019 |
| KFITER | 0.435 ± 0.016 |

| Variant | sfGFP reporter fluorescence |
| --- | --- |
| DIAVAT | 0.096 ± 0.0083 |
| DIAVAP | 0.0922 ± 0.0043 |
| DIAVAR | 0.102 ± 0.0042 |
| KFAVER | 0.51 ± 0.029 |
| KFAVET | 0.41 ± 0.071 |
| KFAVEP | 0.533 ± 0.03 |
| DIIVAT | 0.131 ± 0.0097 |
| DIATHT | 0.103 ± 0.0068 |
| DIATHR | 0.0989 ± 0.0066 |
| KFIKER | 0.147 ± 0.0078 |
| KFIKET | 0.135 ± 0.0014 |
| DFITAR | 0.0635 ± 0.0015 |
| DFITAT | 0.0559 ± 0.004 |
| DFATHR | 0.053 ± 0.0037 |
| DFATHT | 0.0491 ± 0.0032 |
| DFATEP | 0.0428 ± 0.0007 |
| DFATER | 0.0474 ± 0.0018 |
| DFATET | 0.0466 ± 0.0012 |

Same assay, conditions: library round: Round 3b; ligand: 30 µM Zn

| Variant | sfGFP reporter fluorescence |
| --- | --- |
| DIAKET | 0.0466 ± 0.0026 |
| DIAKER | 0.0452 ± 0.0035 |
| DIIVER | 0.047 ± 0.0038 |
| DIIVET | 0.0469 ± 0.0019 |
| KIITER | 0.0497 ± 0.0018 |
| KIITEP | 0.0508 ± 0.0019 |
| KIITET | 0.0513 ± 0.0034 |
| KIIKER | 0.0485 ± 0.0035 |
| KIIKET | 0.0466 ± 0.001 |
| KFITHR | 0.25 ± 0.036 |
| KFITHT | 0.21 ± 0.024 |
| KFAKAT | 0.0878 ± 0.0047 |
| KFAKAP | 0.073 ± 0.0081 |
| KFAKAR | 0.0902 ± 0.0064 |
| KNIVET | 1.2 ± 0.06 |
| KNIVER | 1.4 ± 0.2 |
| KFITEP | 0.0694 ± 0.0043 |
| KFITET | 0.0737 ± 0.0037 |
| KFITER | 0.0763 ± 0.005 |

| Variant | sfGFP reporter fluorescence |
| --- | --- |
| DIAVAT | 0.0457 ± 0.0025 |
| DIAVAP | 0.0441 ± 0.0071 |
| DIAVAR | 0.047 ± 0.0015 |
| KFAVER | 0.056 ± 0.0049 |
| KFAVET | 0.0549 ± 0.0017 |
| KFAVEP | 0.0557 ± 0.0048 |
| DIIVAT | 0.0469 ± 0.005 |
| DIATHT | 0.0451 ± 0.0014 |
| DIATHR | 0.0456 ± 0.0036 |
| KFIKER | 0.0496 ± 0.0038 |
| KFIKET | 0.0531 ± 0.0027 |
| DFITAR | 0.0455 ± 0.0024 |
| DFITAT | 0.0439 ± 0.00085 |
| DFATHR | 0.0482 ± 0.0037 |
| DFATHT | 0.0448 ± 0.0049 |
| DFATEP | 0.0444 ± 0.0036 |
| DFATER | 0.0469 ± 0.0034 |
| DFATET | 0.0451 ± 0.001 |
